Assay results: PMC8799735, “Depletion of mitochondrial methionine adenosyltransferase α1 triggers mitochondrial dysfunction in alcohol-associated liver disease” (Nature Communications, 2022)

Assays:
Settings in all cases: partners not purified
[1] = target: T1, Peptidyl-prolyl cis/trans isomerase NIMA-interacting 1 (PIN1), endogenous mouse (mouse (endogenous in mouse hepatocytes, …, UniProt Q9QUR7 1-165)); assay: co-IP; whole liver lysates of pair-fed and ethanol-fed mice (NIAAA model); IP with anti-PIN1 or anti-MATα1 antibodies, western blot against MATα1 or PIN1, densitometry
T1 construct: source: endogenous, mouse hepatocyte lysate, mouse liver whole lysates and cytosolic fractions, AML-12 lysate

[2] = target: T1, Peptidyl-prolyl cis/trans isomerase …; assay: co-IP; AML-12 cell lysates, control or ethanol (100 mM, 48 h); IP with anti-PIN1 or anti-MATα1 antibodies, western blot, densitometry
[3] = target: T2, Peptidyl-prolyl cis/trans isomerase NIMA-interacting 1 (PIN1), endogenous human (human (endogenous in human hepatocytes, …, UniProt Q13526 1-163)); assay: co-IP; human normal and end-stage cirrhotic ALD liver lysates; IP with anti-PIN1 or anti-MATα1 antibodies, western blot against MATα1 or PIN1, densitometry
T2 construct: source: endogenous, human hepatocyte lysate, human liver lysates and HepG2 lysate
T2 sequence (Q13526 whole entry): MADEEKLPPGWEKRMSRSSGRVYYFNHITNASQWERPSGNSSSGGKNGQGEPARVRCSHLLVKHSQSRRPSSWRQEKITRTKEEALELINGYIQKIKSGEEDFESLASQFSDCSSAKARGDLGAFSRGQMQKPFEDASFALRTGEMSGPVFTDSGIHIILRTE

T1 sequence (Q9QUR7 whole entry): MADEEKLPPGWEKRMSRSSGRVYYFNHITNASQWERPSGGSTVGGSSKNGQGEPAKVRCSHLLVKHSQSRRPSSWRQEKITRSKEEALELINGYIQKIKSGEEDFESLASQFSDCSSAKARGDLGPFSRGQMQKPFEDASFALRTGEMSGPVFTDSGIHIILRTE

fold of co-precipitated signal, ethanol-fed against pair-fed mouse livers [1] | fold of co-precipitated signal, ethanol-treated against control AML-12 cells [2] | fold of co-precipitated signal, alcoholic cirrhotic livers against normal human livers [3] | Binder
2 fold | 3.5 fold | – | Methionine adenosyltransferase α1 (MATα1), endogenous mouse (natural protein, Methionine adenosyltransferase α1 (MATα1), mouse, endogenous; source: endogenous, mouse hepatocyte lysate, mouse liver whole lysates and cytosolic fractions, AML-12 lysate) not shown
– | – | 3.3 fold | Methionine adenosyltransferase α1 (MATα1), endogenous human (natural protein, Methionine adenosyltransferase α1 (MATα1), human, endogenous in hepatocytes and liver; source: endogenous, human hepatocyte lysate and human liver lysates (normal, ALD)) not shown
